In patent US20240327530A1 (ICHNOS SCIENCES, published 2024):
One block for each binder: values may come before it.

What was measured:
[1] = target: T1, gg-hs-hs IL-1RAP; experiment: SPR, IgG1 LALA captured on anti-human IgG Fc CM5 chip, chimera injected at 50 nM
T1 construct: chicken/human IL-1RAP chimera; also called IL-1RAP-ECD(ggD1(S139-P246)-hsD2(V132-V233)-hsD3(V234-E359))-Avi-His; gg-hs-hs-IL-1RAP-ECD-avi-his
T1 single chain: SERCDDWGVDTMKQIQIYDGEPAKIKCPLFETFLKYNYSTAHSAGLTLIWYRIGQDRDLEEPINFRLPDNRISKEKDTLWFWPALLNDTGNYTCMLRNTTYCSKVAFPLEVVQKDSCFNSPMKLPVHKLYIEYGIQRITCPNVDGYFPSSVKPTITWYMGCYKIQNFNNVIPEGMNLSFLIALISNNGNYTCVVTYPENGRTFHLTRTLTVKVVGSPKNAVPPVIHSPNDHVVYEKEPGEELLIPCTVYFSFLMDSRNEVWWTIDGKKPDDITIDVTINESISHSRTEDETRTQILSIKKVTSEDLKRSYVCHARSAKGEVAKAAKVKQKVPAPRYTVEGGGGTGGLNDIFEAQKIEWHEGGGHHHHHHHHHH
Experimental: Human-chicken IL-1RAP chimeras were injected over immobilized anti-IL-1RAP IgG1 LALA at 50 nM in HBS-EP+ buffer followed by a dissociation in HBS-EP+ buffer. “hs” stands for a human domain and “gg” stands for a chicken domain. Human-chicken chimeras are then described by their respective human or chicken domains in successive order, e.g. hs-gg-gg IL-1RAP stands for IL-1RAP with human domain 1, chicken domain 2 and chicken domain 3. Plots show data expressed as number of resonance units (abbreviated RU; Y axis) vs. time (X axis).
Domain of IL-1RAP targeted by IgG1 LALA clones was identified by SPR binding assay. Around 150 RU of IgG1 LALA was immobilized on the fc2 of a Series S CM5 sensor chip previously coated with anti-human IgG Fc (BIACORE™, GE […]®, catalog no. BR100839) using a commercial amine coupling kit (BIACORE™, GE […]®, catalog no. BR100050). Human IL-1RAP-avi-his, chicken IL-1RAP-avi-his, chimeric protein comprising chicken domain 1 of IL-RAP fused to human domain 2 and 3 of IL-1RAP (gg-hs-hs-IL-1RAP-ECD-avi-his) and chimeric protein comprising chicken domain 1 and 2 of IL-1RAP fused to human domain 3 of IL-1RAP (gg-gg-hs-IL-1RAP-avi-his) were injected individually at 50 nM in HBS-EP+ for 3 min over fc1 and fc2 (fc1 being used as reference), followed by dissociation in HBS-EP+ buffer for 5 min. […]

[2] = target: T2, Recombinant mouse IL-1RAP Fc fusion protein (Sino Biologicals, catalog no. 52657-M02H) (mouse, UniProt Q61730 21-350); experiment: SPR, mouse IL-1RAP-Fc captured, Fab as analyte
T2 construct: Bought; not shown: Fc part of the bought fusion protein
T2 sequence: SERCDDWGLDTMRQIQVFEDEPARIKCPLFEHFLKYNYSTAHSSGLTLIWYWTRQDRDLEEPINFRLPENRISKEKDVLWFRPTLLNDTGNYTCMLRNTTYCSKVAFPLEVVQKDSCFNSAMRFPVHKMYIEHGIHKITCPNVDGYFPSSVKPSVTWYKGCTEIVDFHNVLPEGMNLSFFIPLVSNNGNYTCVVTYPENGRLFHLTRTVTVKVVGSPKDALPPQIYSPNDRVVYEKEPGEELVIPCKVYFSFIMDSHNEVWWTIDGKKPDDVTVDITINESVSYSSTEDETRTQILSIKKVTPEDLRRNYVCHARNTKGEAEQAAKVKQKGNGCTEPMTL
Experimental: (§1) Surface plasmon resonance (SPR) was used to measure the binding affinities of the Fab fragments for human, cynomolgus monkey and/or mouse IL-1RAP. Affinities were measured on a BIACORE™ T200 instrument (BIACORE™, GE […]®) at 25° C. and analyzed with the BIACORE™ T200 Evaluation Software (v3.1). Measurements were performed on Series S CM5 sensor chips (BIACORE™ T200, BIACORE™, GE […]®, catalog no. BR100530) coupled with anti-human IgG Fc (BIACORE™, GE […]®, catalog no. BR100839) using a commercial amine coupling kit (BIACORE™, GE […]®, catalog no. BR100050) or on Series S BiotinCAPture chips (BIACORE™, GE […]®, catalog no. 28920234). SPR measurements were performed with commercially available recombinant human IL-1RAP Fc fusion protein (Acrobiosystems, catalog no. ILP-H5256) and recombinant mouse IL-1RAP Fc fusion protein (Sino Biologicals, catalog no. 52657-M02H) or with biotinylated recombinant cynomolgus monkey IL-1RAP-avi-his protein produced in-house (SEQ ID NO. 2).
(§2) The affinities to human, cynomolgus monkey and mouse IL-1RAP were assessed by immobilizing IL-1RAP and using Fab fragments as analyte. Around 100 RU of human or mouse IL-1RAP Fc fusion protein were captured on fc2 of a Series S CM5 sensor chip coupled with anti-human IgG Fc and around 150 RU of biotinylated cynomolgus monkey IL-1RAP protein were captured on fc2 of a Series S BiotinCAPture chip. Fab fragments were injected in single cycle kinetic at different concentrations ranging from 7.8 to 500 nM, in HBS-EP+ buffer (BIACORE™, GE […]®, catalog no. BR100669) at a flow rate of 30 μl/min for 3 min on fc1 and fc2 (fc1 being used as reference). Dissociation was monitored for 5 min. After each cycle, the surface was regenerated with 60 μl of regeneration solution provided with anti-human IgG Fc capture kit (BIACORE™, GE […]®, catalog no. BR100839) or BiotinCAPture kit (BIACORE™, GE […]®, catalog no. 28920234) respectively. Experimental data were processed using the 1:1 Langmuir kinetic fitting model. Measurements included zero-concentration samples for referencing. Chi², U- and residual values were used to evaluate the quality of a fit between the experimental data and individual binding models.

[3] = target: T3, Recombinant human IL-1RAP Fc fusion protein (Acrobiosystems, catalog no. ILP-H5256) (human, UniProt Q9NPH3 21-359, limits assumed); experiment: SPR, human IL-1RAP-Fc captured, Fab as analyte, 1:1 fit
T3 construct: Bought; not shown: Fc part of the bought fusion protein
T3 sequence: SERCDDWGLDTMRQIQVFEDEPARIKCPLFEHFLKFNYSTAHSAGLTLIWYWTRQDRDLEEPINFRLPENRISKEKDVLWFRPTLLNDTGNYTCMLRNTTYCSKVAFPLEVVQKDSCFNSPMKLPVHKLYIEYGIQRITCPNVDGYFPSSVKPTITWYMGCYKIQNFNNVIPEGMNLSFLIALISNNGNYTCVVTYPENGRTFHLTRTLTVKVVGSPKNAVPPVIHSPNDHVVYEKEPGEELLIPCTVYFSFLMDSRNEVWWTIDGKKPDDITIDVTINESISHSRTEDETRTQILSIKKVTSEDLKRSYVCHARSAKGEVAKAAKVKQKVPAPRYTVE
Experimental: as §1, §2

[4] = target: T4, Recombinant cynomolgus monkey IL-1RAP-ECD(S21-E359)-avi-his protein (cynomolgus monkey, UniProt P59822 21-359 (rhesus entry)); experiment: SPR, biotinylated cyno IL-1RAP-avi-his captured, Fab as analyte
T4 construct: also called cyno IL-1RAP-ECD-Avi-His; recombinant cynomolgus monkey IL-1RAP-avi-his protein
T4 sequence: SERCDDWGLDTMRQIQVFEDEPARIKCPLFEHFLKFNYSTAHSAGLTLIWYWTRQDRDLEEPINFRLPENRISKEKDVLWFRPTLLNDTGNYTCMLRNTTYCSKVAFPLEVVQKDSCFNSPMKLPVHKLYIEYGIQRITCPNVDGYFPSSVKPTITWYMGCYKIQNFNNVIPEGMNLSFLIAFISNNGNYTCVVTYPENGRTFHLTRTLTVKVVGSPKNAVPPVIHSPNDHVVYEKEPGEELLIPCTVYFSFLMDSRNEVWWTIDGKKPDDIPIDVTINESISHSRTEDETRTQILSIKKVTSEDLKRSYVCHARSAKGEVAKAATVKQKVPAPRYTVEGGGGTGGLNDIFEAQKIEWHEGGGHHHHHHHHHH
Experimental: as §1
(§3) The affinities to human, cynomolgus monkey and mouse IL-1RAP were assessed by immobilizing IL-1RAP and using Fab fragments as analyte. […] Dissociation was monitored for 5 min. […]

[5] = target: T4, Recombinant cynomolgus monkey …; experiment: SPR, Fab as analyte
Experimental: as §1, §3

[6] = target: T2, Recombinant mouse IL-1RAP Fc fusion …; experiment: SPR, mouse IL-1RAP-Fc captured, Fab as analyte, 1:1 fit
Experimental: as §1, §3

[7] = target: T4, Recombinant cynomolgus monkey …; experiment: SPR, biotinylated cyno IL-1RAP-avi-his captured, Fab as analyte, 1:1 fit
Experimental: as §1, §2

binding result [1]: binds
B1: anti-IL-1RAP-C8 IgG1 LALA (antibody, V domains shown)
VH: QVQLVQSGAEVKKPGSSVKVSCKASGGQFSEYAIQWVRQAPGQGLEWMGYIIPLHGQVDYAQKFQGRVTITADESTSTAYMELSSLRSEDTAVYYCARGQTLYDSGRQFDIWGQGTLVTVSS
VL: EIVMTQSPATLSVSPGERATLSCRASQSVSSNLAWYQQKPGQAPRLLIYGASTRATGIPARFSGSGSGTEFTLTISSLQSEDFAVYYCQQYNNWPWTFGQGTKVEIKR
notes: Human IgG1 with L234A/L235A (EU)

binding result [2]: no binding (tested: 7.8 to 500 nM Fab)
Kd [3]: 311 nM
binding result [4]: no binding (tested: 7.8 to 500 nM Fab)
B2: Anti-IL-1RAP-UCP02-B5-Fab (Fab, V domains shown)
VH: QVQLVQSGAEVKKPGSSVKVSCKASGGYFSAYIISWVRQAPGQGLEWMGGIVPQYGYATYAQKFQGRVTITADESTSTAYMELSSLRSEDTAVYYCARGRSTTYYGFAYWGQGTLVTVSS
VL: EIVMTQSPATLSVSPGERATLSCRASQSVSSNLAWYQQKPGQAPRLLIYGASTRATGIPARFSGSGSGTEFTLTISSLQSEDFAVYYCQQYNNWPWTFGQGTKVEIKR

binding result [1]: binds
B3: anti-IL-1RAP-C3 IgG1 LALA (antibody, V domains shown)
VH: EVQLLESGGGLVQPGGSLRLSCAASGFTFRDYAMGWVRQAPGKGLEWVSAISYDGEGTLYADSVKGRFTISRDNSKNTLYLQMNSLRAEDTAVYYCARFRYYTAFDYWGQGTLVTVSS
VL: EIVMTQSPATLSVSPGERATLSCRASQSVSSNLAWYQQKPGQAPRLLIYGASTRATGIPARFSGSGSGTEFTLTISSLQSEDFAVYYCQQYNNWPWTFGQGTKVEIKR
notes: as for B1

fold lower affinity than to human IL-1RAP [5]: ~40 fold
Kd [3]: 2.8 nM
Kd [6]: 0.63 nM
Kd [7]: 110 nM
B4: Anti-IL-1RAP-UCP02-C3-Fab (Fab, V domains shown)
VH: B3 VH
VL: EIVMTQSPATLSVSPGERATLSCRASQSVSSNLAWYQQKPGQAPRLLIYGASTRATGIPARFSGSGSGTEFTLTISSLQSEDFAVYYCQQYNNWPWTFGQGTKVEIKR
notes: also called anti-IL-1RAP-C3; anti-IL-1RAP-C3 Fab

Kd [3]: 16 nM
Kd [6]: 3.54 nM
binding result [4]: no binding (tested: 7.8 to 500 nM Fab)
B5: Anti-IL-1RAP-UCP04-C1-Fab (Fab, V domains shown)
VH: EVQLLESGGGLVQPGGSLRLSCAASGFTFSAYTMSWVRQAPGKGLEWVSAISYEGDGTLYADSVKGRFTISRDNSKNTLYLQMNSLRAEDTAVYYCARSLYWSGFDYWGQGTLVTVSS
VL: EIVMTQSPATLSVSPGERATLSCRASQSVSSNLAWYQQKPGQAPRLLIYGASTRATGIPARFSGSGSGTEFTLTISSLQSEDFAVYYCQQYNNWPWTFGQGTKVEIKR
